We go through five substances from patent US20260069689A1.

The target in assay [1] is human FcγR3a 176Val allotype receptor (human) (UniProt P08637). As to the kind of experiment: cell-based or functional assay.
The target in assay [2] is full-length SARS-CoV-2 spike protein (Wuhan-Hu-1) on Jurkat/hCD20 cells (SARS-CoV-2) (UniProt P0DTC2). As to the kind of experiment: cell-based or functional assay.
Assay [3] concerns the target T1, human CD20 on Jurkat cells (human) (UniProt P11836).
T1 sequence: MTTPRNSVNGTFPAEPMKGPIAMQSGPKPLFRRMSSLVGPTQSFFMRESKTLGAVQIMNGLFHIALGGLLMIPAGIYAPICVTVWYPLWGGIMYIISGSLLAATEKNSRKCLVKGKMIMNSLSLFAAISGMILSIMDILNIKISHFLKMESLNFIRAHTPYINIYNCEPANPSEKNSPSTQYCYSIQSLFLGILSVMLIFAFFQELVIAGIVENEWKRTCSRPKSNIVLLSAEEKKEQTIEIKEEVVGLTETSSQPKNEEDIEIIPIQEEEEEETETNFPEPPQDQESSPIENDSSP
As to the kind of experiment: cell-based or functional assay.

A further assay concerns the target hACE-2-10His (human) (UniProt Q9BYF1). As to the kind of experiment: ELISA, hACE-2-10His coated on the plate. For orientation: ELISA stands for enzyme-linked immunosorbent assay.

Broadly, the EC50 is the concentration needed to bring the measured effect to its halfway point. A lower EC50 goes with an effect from little substance.

In assay [1], mAb10933 (antibody) showed an EC50 (M), Jurkat/CD20/spike of 6.47e-10 M; a Fold induction, Jurkat CD20 of 1.1 fold; a Fold induction, Jurkat/CD20/spike of 2.9 fold. In assay [2], this substance gave an EC50 (M) of ADCC, NK donor #3, Jurkat/hCD20/SARS-CoV-2 S FL cells of 4.89e-11 M; an EC50 (M) of ADCP, MDM donor #1, Jurkat/hCD20/SARS-CoV-2 S FL cells of 9.7e-12 M; an EC50 (M) of ADCP, MDM donor #2, Jurkat/hCD20/SARS-CoV-2 S FL cells of 2.23e-11 M; an EC50 [M] of ADCP, macrophages, Jurkat/hCD20/SARS-CoV-2 spike cells of 3.88e-11 M. In addition, in assay [2], the Max % ADCP, macrophages, Jurkat/hCD20/SARS-CoV-2 spike cells stood at 33.1%; the Max ADCP (%), MDM donor #1, Jurkat/hCD20/SARS-CoV-2 S FL cells turned out to be 28.3%; the Max ADCP (%), MDM donor #2, Jurkat/hCD20/SARS-CoV-2 S FL cells amounted to 28.6%; the Max cytotoxicity (%), ADCC, NK donor #1, Jurkat/hCD20/SARS-CoV-2 S FL cells worked out at 1.4%. Besides, in assay [2], the Max cytotoxicity (%), ADCC, NK donor #2, Jurkat/hCD20/SARS-CoV-2 S FL cells stood at 5% and the Max cytotoxicity (%), ADCC, NK donor #3, Jurkat/hCD20/SARS-CoV-2 S FL cells came out at 11.1%. In assay [3], this substance gave a Max ADCP (%), MDM donor #1, Jurkat/hCD20 cells of 14%; a Max ADCP (%), MDM donor #2, Jurkat/hCD20 cells of 11.5%; a Max cytotoxicity (%), ADCC, NK donor #1, Jurkat/hCD20 cells of 4.7%; a Max cytotoxicity (%), ADCC, NK donor #2, Jurkat/hCD20 cells of 3.6%. The substance further returned a Max cytotoxicity (%), ADCC, NK donor #3, Jurkat/hCD20 cells in assay [3] of 1.2%.

In the case of SARS-CoV-2 RBD.mmh, in the assay with hACE-2-10His (human), the EC50 is 0.3 nM.

For the substance IgG1 isotype control (antibody), in assay [2], the Max ADCP (%), MDM donor #1, Jurkat/hCD20/SARS-CoV-2 S FL cells amounted to 13.1%; the Max ADCP (%), MDM donor #2, Jurkat/hCD20/SARS-CoV-2 S FL cells is 9.6%; the Max cytotoxicity (%), ADCC, NK donor #1, Jurkat/hCD20/SARS-CoV-2 S FL cells stood at 1.8%; the Max cytotoxicity (%), ADCC, NK donor #2, Jurkat/hCD20/SARS-CoV-2 S FL cells amounted to 0%. The substance further registered a Max cytotoxicity (%), ADCC, NK donor #3, Jurkat/hCD20/SARS-CoV-2 S FL cells in assay [2] of 0%. In assay [3], this substance came in with a Max ADCP (%), MDM donor #1, Jurkat/hCD20 cells of 16.9%; a Max ADCP (%), MDM donor #2, Jurkat/hCD20 cells of 14.6%; a Max cytotoxicity (%), ADCC, NK donor #1, Jurkat/hCD20 cells of 0.7%; a Max cytotoxicity (%), ADCC, NK donor #2, Jurkat/hCD20 cells of 6.4%. In addition, in assay [3], the Max cytotoxicity (%), ADCC, NK donor #3, Jurkat/hCD20 cells is 0.5% and the Max cytotoxicity (%), ADCC, pooled primary NK cells, Jurkat/hCD20 cells turned out to be 0.6%.

On to mAb10987 (antibody), for which the EC50 (M), Jurkat/CD20/spike in assay [1] turned out to be 4.71e-10 M. In assay [2], this substance displayed an EC50 (M) of ADCC, NK donor #1, Jurkat/hCD20/SARS-CoV-2 S FL cells of 7.42e-10 M; an EC50 (M) of ADCC, NK donor #2, Jurkat/hCD20/SARS-CoV-2 S FL cells of 5.05e-09 M; an EC50 (M) of ADCC, NK donor #3, Jurkat/hCD20/SARS-CoV-2 S FL cells of 6.44e-11 M; an EC50 (M) of ADCP, MDM donor #1, Jurkat/hCD20/SARS-CoV-2 S FL cells of 2.91e-11 M. In assay [2], this substance returned an EC50 (M) of ADCP, MDM donor #2, Jurkat/hCD20/SARS-CoV-2 S FL cells of 1.98e-11 M; an EC50 [M] of ADCP, macrophages, Jurkat/hCD20/SARS-CoV-2 spike cells of 3.19e-11 M; a Max % ADCP, macrophages, Jurkat/hCD20/SARS-CoV-2 spike cells of 36.3%; a Max ADCP (%), MDM donor #1, Jurkat/hCD20/SARS-CoV-2 S FL cells of 32.3%. Further, in assay [2], the Max ADCP (%), MDM donor #2, Jurkat/hCD20/SARS-CoV-2 S FL cells came out at 30.4%; the Max cytotoxicity (%), ADCC, NK donor #1, Jurkat/hCD20/SARS-CoV-2 S FL cells is 8.1%; the Max cytotoxicity (%), ADCC, NK donor #2, Jurkat/hCD20/SARS-CoV-2 S FL cells came to 10.5%; the Max cytotoxicity (%), ADCC, NK donor #3, Jurkat/hCD20/SARS-CoV-2 S FL cells stood at 26.6%. In assay [3], this substance had a Max ADCP (%), MDM donor #1, Jurkat/hCD20 cells of 14.8%; a Max ADCP (%), MDM donor #2, Jurkat/hCD20 cells of 10.7%; a Max cytotoxicity (%), ADCC, NK donor #1, Jurkat/hCD20 cells of 3.9%; a Max cytotoxicity (%), ADCC, NK donor #2, Jurkat/hCD20 cells of 1.9%.

For casirivimab + imdevimab, in assay [2], the EC50 (M) of ADCC, NK donor #3, Jurkat/hCD20/SARS-CoV-2 S FL cells turned out to be 3.6e-11 M; the EC50 (M) of ADCP, MDM donor #1, Jurkat/hCD20/SARS-CoV-2 S FL cells stood at 1.2e-10 M; the EC50 (M) of ADCP, MDM donor #2, Jurkat/hCD20/SARS-CoV-2 S FL cells turned out to be 5.78e-11 M; the Max ADCP (%), MDM donor #1, Jurkat/hCD20/SARS-CoV-2 S FL cells came out at 49.5%. In assay [2], this substance displayed a Max ADCP (%), MDM donor #2, Jurkat/hCD20/SARS-CoV-2 S FL cells of 48.2%; a Max cytotoxicity (%), ADCC, NK donor #1, Jurkat/hCD20/SARS-CoV-2 S FL cells of 1.6%; a Max cytotoxicity (%), ADCC, NK donor #2, Jurkat/hCD20/SARS-CoV-2 S FL cells of 4.1%; a Max cytotoxicity (%), ADCC, NK donor #3, Jurkat/hCD20/SARS-CoV-2 S FL cells of 15.4%.
